Experimental data reported in US20130315914A1 (NOVIMMUNE, published 2013).
Substitutions are numbered along the chain they refer to. Numbers in names are those of the source.

T1: cynomolgus monkey TLR4 expressed on stably transfected CHO-K1 cells (cynomolgus monkey, UniProt Q9TSP2 24-826 (Papio anubis entry))
T1 construct: Transfected alone; also called CHO cells expressing the cynomolgus monkey TLR4
T1 chain: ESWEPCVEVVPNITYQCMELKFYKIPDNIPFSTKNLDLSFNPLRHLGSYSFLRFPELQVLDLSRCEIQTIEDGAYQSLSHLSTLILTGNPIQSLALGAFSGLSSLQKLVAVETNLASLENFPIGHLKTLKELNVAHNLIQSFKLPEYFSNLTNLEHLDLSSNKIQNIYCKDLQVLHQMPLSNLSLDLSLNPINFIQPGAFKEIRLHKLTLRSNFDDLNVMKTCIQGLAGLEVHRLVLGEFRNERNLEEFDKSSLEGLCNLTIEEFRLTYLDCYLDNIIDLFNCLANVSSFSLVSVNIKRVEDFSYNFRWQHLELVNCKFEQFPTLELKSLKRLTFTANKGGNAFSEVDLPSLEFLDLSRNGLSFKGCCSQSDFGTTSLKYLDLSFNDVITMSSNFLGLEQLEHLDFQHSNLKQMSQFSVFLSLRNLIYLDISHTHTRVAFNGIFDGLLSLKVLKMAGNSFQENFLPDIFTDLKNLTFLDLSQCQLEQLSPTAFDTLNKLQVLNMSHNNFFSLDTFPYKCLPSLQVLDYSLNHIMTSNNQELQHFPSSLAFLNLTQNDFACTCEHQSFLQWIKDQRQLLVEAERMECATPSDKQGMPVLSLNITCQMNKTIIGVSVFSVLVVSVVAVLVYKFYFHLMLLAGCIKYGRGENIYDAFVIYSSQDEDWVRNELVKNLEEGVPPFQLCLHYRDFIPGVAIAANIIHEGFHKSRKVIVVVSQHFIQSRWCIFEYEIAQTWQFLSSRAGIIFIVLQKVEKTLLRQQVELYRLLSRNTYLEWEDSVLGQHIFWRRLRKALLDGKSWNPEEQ

T2: cynomolgus monkey TLR4 in cynomolgus monkey whole blood (cynomolgus monkey, UniProt Q9TSP2 24-826 (Papio anubis entry))
T2 chain: T1 chain

B1: 1A1 antibody (IgG1) (antibody, V domains shown)
VH: QVQLQESGPGLVKPSDTLSLTCAVSGYSITGGYSWHWIRQPPGKGLEWMGYIHYSGYTDFNPSLKTRITISRDTSKNQFSLKLSSVTAVDTAVYYCARKDSGRLLPYWGQGTLVTVSS
VL: EIVLTQSPDFQSVTPKEKVTITCRASQSISDHLHWYQQKPDQSPKLLIKYASHAISGVPSRFSGSGSGTDFTLTINSLEAEDAATYYCQQGHSFPLTFGGGTKVEIK
notes: also called 1A1 Mab
B2: 1C10 antibody (IgG1) (antibody, V domains shown)
VH: B1 VH with R103K, L104N, L105F
VL: B1 VL
notes: also called 1C10 Mab
B3: 1D10 antibody (IgG1) (antibody, V domains shown)
VH: B1 VH with R103H, L104N
VL: B1 VL
notes: also called 1D10 Mab
B4: 1C12 antibody (IgG1) (antibody, V domains shown)
VH: B1 VH with R103Q, L105F
VL: B1 VL
notes: also called 1C12 Mab
B5: 1A6 antibody (IgG1) (antibody, V domains shown)
VH: B1 VH with R103K, L104W
VL: B1 VL
notes: also called 1A6 Mab
B6: 1C7 antibody (IgG1) (antibody, V domains shown)
VH: B1 VH with R103H, L104N, L105Y
VL: B1 VL
notes: also called 1C7 Mab
B7: 1B12 antibody (IgG1) (antibody, V domains shown)
VH: B1 VH with R103H, L105M
VL: B1 VL
notes: also called 1B12 Mab
B8: 1G12 antibody (IgG1) (antibody, V domains shown)
VH: B1 VH with L104Y, L105W
VL: B1 VL
notes: also called 1G12 Mab
B9: 1E11 N103D antibody (IgG1) (antibody, V domains shown)
VH: B1 VH with R103D, L104Y, L105F
VL: B1 VL
notes: 1E11 with the N103D mutation in the heavy chain; also called 1E11 N103D Mab
B10: 1E11 antibody (IgG1 reformatted) (antibody, V domains shown)
VH: B1 VH with R103N, L104Y, L105F
VL: EIVLTQSPDFQSVTPKEKVTITCRASQSISDHLHWYQQKPDQSPKLLIKYASHAISGVPSRFSGSGSGTDFTLTINSLEAEDAATYYCQQGHSFPLTFGGGTKVEIKR
notes: also called 1E11 Mab
B11: 1E11.C2E5 antibody (IgG1) (antibody, V domains shown)
VH: B1 VH with S28P, T30R, G31F, R103N, L104Y, L105F
VL: B1 VL with H92Y, S93E
B12: 1E11.C2E4 antibody (IgG1) (antibody, V domains shown)
VH: B1 VH with S28P, T30R, G31F, R103N, L104Y, L105F
VL: B1 VL with H92Y, S93D, F94Y
B13: 1E11.C6 antibody (IgG1) (antibody, V domains shown)
VH: B1 VH with S28P, T30G, R103N, L104Y, L105F
VL: B1 VL
B14: 1E11.C5 antibody (IgG1) (antibody, V domains shown)
VH: B1 VH with S28P, T30W, R103N, L104Y, L105F
VL: B1 VL
B15: 1E11.E4 antibody (IgG1) (antibody, V domains shown)
VH: B1 VH with R103N, L104Y, L105F
VL: B1 VL with H92Y, S93D, F94Y
B16: 1E11.C2E1 antibody (IgG1) (antibody, V domains shown)
VH: B1 VH with S28P, T30R, G31F, R103N, L104Y, L105F
VL: B1 VL with H92N, S93D, L96V
B17: 1E11.E2 antibody (IgG1) (antibody, V domains shown)
VH: B1 VH with R103N, L104Y, L105F
VL: B1 VL with H92Y, S93D, F94E, L96F
B18: 1E11.E5 antibody (IgG1) (antibody, V domains shown)
VH: B1 VH with R103N, L104Y, L105F
VL: B1 VL with H92Y, S93E
B19: 1E11.E3 antibody (IgG1) (antibody, V domains shown)
VH: B1 VH with R103N, L104Y, L105F
VL: B1 VL with H92Y, S93D
B20: 1E11.E1 antibody (IgG1) (antibody, V domains shown)
VH: B1 VH with R103N, L104Y, L105F
VL: B1 VL with H92N, S93D, L96V
B21: 1E11.C3 antibody (IgG1) (antibody, V domains shown)
VH: B1 VH with S28P, T30R, G31H, R103N, L104Y, L105F
VL: B1 VL
B22: 1E11.C2 antibody (IgG1) (antibody, V domains shown)
VH: B1 VH with S28P, T30R, G31F, R103N, L104Y, L105F
VL: B1 VL
B23: 1E11.C1 antibody (IgG1 reformatted) (antibody, V domains shown)
VH: B1 VH with Y27F, S28P, T30R, G31Y, R103N, L104Y, L105F
VL: B10 VL
notes: VH 67 / VL 4 are the variable domains

Biological target: T1, cynomolgus monkey TLR4 expressed on …
Experiment: summary table of species specificity (flow cytometry results)
Description: 10⁵ CHO cells or CHO cells expressing the cynomolgus monkey TLR4 were incubated in phosphate-buffered saline, 2% bovine serum albumin with different concentrations of purified antibodies selected by FMAT (1A1, 1A6, 1B12, 1C7, 1C10, 1C12, 1D10, 1E11, 1G12) with 15C1 as control. Cells were washed in phosphate-buffered saline, 2% bovine serum albumin and incubated in Alexa Fluor® 647 goat anti human IgG (H+L) (1:200; Invitrogen). Cells were analyzed using a FACS calibur cytometer (BD Biosciences).
Similar experiments were conducted with CHO cells or CHO cells expressing the human TLR4/MD2 complex. […] 1C12 Mab was also able to bind to human TLR4 but with a lower potency compared to 1E11 and 15C1 Mabs.

binding result	Binder
binds	B1
binds	B2
binds	B3
binds	B4
binds	B5
binds	B6
binds	B7
binds	B8
binds	B9

Biological target: T1, cynomolgus monkey TLR4 expressed on …
Experiment: summary grade (species binding potential); assay not given

binding result	Binder
binds	B10
binds	B11
binds	B12
binds	B13
binds	B14
binds	B15
binds	B16
binds	B17
binds	B18
binds	B19
binds	B20
binds	B21

Biological target: T2, cynomolgus monkey TLR4 in cynomolgus …
Experiment: cell-based or functional assay

IC50, inhibition of IL-6 production in cynomolgus monkey whole blood assay [µg/mL]	Binder
~0.5	B22

The binders below were run against human TLR4 in human whole blood (human) (assay: cell-based or functional assay).

IC50, inhibition of IL-6 production in human whole blood assay [µg/mL]	fold better than 15C1 at blocking human TLR4 (human whole blood assay) [fold]	Binder
0.07	3	B22

What follows are binders tested against T3, soluble histidine-tagged form of human TLR4/MD2 complex (human, UniProt Q9Y6Y9 19-160) (assay: competitive ELISA; 15C1 reference EC50 divided by variant EC50).
Description: (§1) The VH and VL cDNA sequences in their appropriate expression vectors were transfected into mammalian cells using the Fugene 6 Transfection Reagent (Roche, Basel, Switzerland). Briefly, Peak cells were cultured in 6-well plates at a concentration of 6×10⁵ cells per well in 2 mL culture media containing fetal bovine serum. The expression vectors, encoding the candidate VH and VL sequences, were co-transfected into the cells using the Fugene 6 Transfection Reagent according to manufacturer's instructions. One day following transfection, the culture media was aspirated, and 3 mL of fresh serum-free media was added to cells and cultured for three days at 37° C. Following three days culture period, the supernatant was harvested for IgG purified on protein G-Sepharose 4B fast flow columns (Sigma, St. Louis, Mo.) according to manufacturer's instructions. Briefly, supernatants from transfected cells were incubated overnight at 4° C. with ImmunoPure (G) IgG binding buffer (Pierce, Rockford Ill.). Samples were then passed over Protein G-Sepharose 4B fast flow columns and the IgG consequently purified using elution buffer. The eluted IgG fraction was then dialyzed against PBS and the IgG content quantified by absorption at 280 nm. Purity and IgG integrity were verified by SDS-PAGE. Relative binding potency of 1E11 variants was assessed by competitive ELISA. Briefly, 15C1 antibody was coated overnight in a 96-well Maxisorp plate and then blocked with PBS-BSA. The 15C1 reference antibody and affinity matured variants of 1E11 were added to the plate at a fixed concentration and a 3.5-fold serial dilution of the samples was performed. Then, soluble histidine-tagged form of human TLR4/MD2 complex was added to the plate at a fixed concentration. After incubation one hour at 37° C., the plate was washed and a solution of Penta-His-HRP antibody was distributed, this step was followed by an additional incubation time of one hour at 37° C. Finally, the plate was washed and TMB was added for colorimetric revelation, the enzymatic reaction is stopped by H₂SO₄ solution. The results were determined according to the absorbance at 450 nm. The relative binding potency was calculated by dividing the reference EC₅₀ with affinity matured variants EC₅₀ (Table 8).

T3 sequence (Q9Y6Y9 19-160, one chain of several): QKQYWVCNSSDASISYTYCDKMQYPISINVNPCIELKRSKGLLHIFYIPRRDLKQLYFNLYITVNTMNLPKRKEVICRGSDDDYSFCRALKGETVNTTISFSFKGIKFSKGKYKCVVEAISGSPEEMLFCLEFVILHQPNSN

Relative binding potency increase [fold]	Binder
36	B11
40	B12
12	B23
10	B13
7	B14
5	B15
29	B16
2	B17
17	B22
4	B18
5	B19
4	B20
5	B21

These binders were tested against T3, soluble histidine-tagged form of human … (assay: competitive ELISA; coated 15C1 as competitor, soluble His-tagged human TLR4/MD2, Penta-His-HRP).
Description: as §1

EC50 [µg/mL]	Binder
0.017	B11
0.015	B12
0.052	B23
0.061	B13
0.087	B14
0.13	B15
0.021	B16
0.315	B17
0.036	B22
0.152	B18
0.126	B19
0.157	B20
0.119	B21
